Laboratory results published in patent US12479895B2, “C-terminal CDNF and MANF fragments, pharmaceutical compositions comprising same and uses thereof” (MyNeuroCure Oy, priority 2018, dated 2025).

Key:
dopamine neurons = test: Survival of TH-positive dopamine neurons in dissociated midbrain floor cultures; assay type: cell-based, mouse; conditions: for survived neurons as % compared to neurons grown in the presence of GDNF: Table 3A (FIG. 15); for survived neurons as % compared to neurons grown in the presence of GDNF / protection of dopaminergic neurons in culture (result in words): 5 days; for Fold change of survived neurons compared to neurons grown without growth factors: data of Table 3 divided by values of no factor; for protection of dopaminergic neurons in culture (result in words): added to the culture medium, TH-positive neurons counted
Method in brief: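 Dissociated E13.5 NMRI mouse midbrain floor neurons grown five days in DMEM/F12 with N2, with polypeptides at a range of concentrations, GDNF (100 ng/ml), or nothing. TH-immunopositive neurons were counted by imaging. Values are a percentage of GDNF-maintained TH-positive neurons, as mean ± SEM from at least three independent cultures.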

[1] = test system: SOD1-G93A mouse ALS model; test: SOD1-G93A mouse model of ALS; assay type: in vivo
Excerpt: Transgenic SOD1 G93A mice served as a transgenic mouse model for ALS in this study. Transgenic mice containing various human SOD1 mutations develop progressive neurodegeneration and motoneuron (MN) death, providing an animal model that has been commonly used for preclinical trials and that has greatly contributed to the understanding of FALS pathogenesis (Gurney et al., 1994). […] In these mice hind limb weakness and tremulous movement appear as initial symptoms at 8-10 week of age, followed by major symptoms such as progressive motor paralysis and neurogenic amyotrophy (Shibata 2001). These mice subsequently show disability of gait, eating and drinking and die within some weeks, usually at 14-16 week of age. The transgenic mice carrying the human SOD1 with the glycine93 to alanine mutated were originally obtained from The Jackson Laboratory (http://www.jax.org), Bar Harbor, ME; Strain B6SJL-TgN (SOD1-G93A) 1Gur). Transgenic expression was analyzed by DNA tail tests and PCR, using specific oligonucleotides and conditions as done previously by others (see homepage Jackson Lab). In all the experiments the wild-type B6SJL-TgN (SOD1) 2Gur were included as controls.
In the single administration experiment, mice at around 13 weeks of age received a single intracerebroventricular injection of PBS or C-CDNF (3.75 μg that is equimolar to full-length CDNF 10 μg diluted in PBS) under isofluorane anesthesia. Mice were then evaluated for signs of disease and body weight changes twice a week. Evaluation was completed by a battery of behavioral tests designed to assess motor activity in the mice; the battery comprises tests e.g rotarod.
In the chronic infusion experiment, 12-week-old SOD1 mice were inserted a brain infusion cannula (connected via catheter-tubing to an Alzet osmotic minipump) to the right lateral ventricle under isoflurane anesthesia. C-CDNF (1.5 μg/24 h) was infused for 28 days. Motor behavior was evaluated with rotarod. Mice were evaluated for clinical signs and body weight changes.
Clinical scoring for SOD1 mice was done using instructions from Jackson laboratory. The mice were carefully examined 2 times a week after they were 12 weeks old. Animals were scored by lifting them gently by the base of their tails and observing them for tremors, stiffness and their ability to extend their limbs. The clinical scoring is on a scale of 1 to 5, based on ALSTDI (ALS therapy Development Institute) hind limb neurological scoring system.
In rotarod, mice were put to a rotating rod (accelerating speed 4-40 rpm/minute), (Ugo Basile, Italy). Cut off time was 4 minutes. Rotarod test was done 2 times a week after the mice were 12 weeks old.

[2] = rat, in vivo, sc
Protocol: CDNF, C-CDNF and C-MANF were iodinated with ^125I-Na using the lactoperoxidase method. The protein in question was dissolved in 30 μl of 0.25 M phosphate buffer, pH 7.5, and mixed with ^125I-Na (1 mCi/2.8 μl; 1 mCi=37 mBq; GE Healthcare). The reaction was started by adding lactoperoxidase 10 μl of 50 μg/ml and 0.05% H2O2. The mixture was incubated at room temperature for 20 min and the reaction was stopped by adding 3 volumes of 0.1 M phosphate buffer, pH 7.5, containing 0.1 M NaI, 0.42 M NaCl, and then 25 μl of 2.5% BSA was added. Free iodine and iodinated protein were separated by gel filtration on Sephadex G-25 columns (PM10; GE Healthcare). For column equilibrium and elution, 0.1 M phosphate buffer, pH 7.5, with 1% BSA was used. The iodinated growth factors were sometimes concentrated by using YM-10 Centricon columns (Millipore). The specific activity of ^125I-labeled CDNF, C-CDNF and C-MANF was measured on the Wizard 3 1480 Automatic Gamma Counter (Perkin Elmer, Wallac) and was about 10^8 cpm/μg protein. The labelled protein were kept at 4° C. and used within 3 weeks after labelling.
^125I-CDNF, ^125I C-CDNF or ^125I C-MANF (all proteins at 10^6 cpm in 10 μl) were injected subcutaneously to adult male Wistar rats. […] Radioactivity was analyzed in different brain regions by gamma counter. […] The differences between groups were analyzed ANOVA followed by Tukey-Kramers post hoc test.

B1: KYEKTLDLASVDLRKMRVAELKQILHSWGEECRACAEKTDYVNLIQELAPKYAATHPKTEL (peptide, listed as Homo sapiens)
chain: KYEKTLDLASVDLRKMRVAELKQILHSWGEECRACAEKTDYVNLIQELAPKYAATHPKTEL
In the case of B1, the “survived neurons as % compared to neurons grown in the presence of GDNF” value (shortened to “survived neurons as %”) (dopamine neurons; AVG, 1 ng/ml) is reported as 63.97 % GDNF, the “survived neurons as %” value (dopamine neurons; AVG, 10 ng/ml) is reported as 80.69 % GDNF and the “survived neurons as %” value (dopamine neurons; AVG, 100 ng/ml) is reported as 77.02 % GDNF. The “survived neurons as %” value (dopamine neurons; AVG, 1000 ng/ml) was 70.02 % GDNF, the “survived neurons as %” value (dopamine neurons; exp1, 1 ng/ml) was 62.96 % GDNF and the “survived neurons as %” value (dopamine neurons; exp1, 10 ng/ml) was 81.68 % GDNF. The “survived neurons as %” value (dopamine neurons; exp1, 100 ng/ml) was 91.48 % GDNF, the “survived neurons as %” value (dopamine neurons; exp1, 1000 ng/ml) was 75.02 % GDNF and the “survived neurons as %” value (dopamine neurons; exp2, 1 ng/ml) was 67.36 % GDNF. For the same molecule, the “survived neurons as %” value (dopamine neurons; exp2, 10 ng/ml) was 80.97 % GDNF, the “survived neurons as %” value (dopamine neurons; exp2, 100 ng/ml) was 65.28 % GDNF and the “survived neurons as %” value (dopamine neurons; exp2, 1000 ng/ml) was 61.07 % GDNF. For the same molecule, the “survived neurons as %” value (dopamine neurons; exp3, 1 ng/ml) was 61.59 % GDNF, the “survived neurons as %” value (dopamine neurons; exp3, 10 ng/ml) was 79.42 % GDNF and the “survived neurons as %” value (dopamine neurons; exp3, 100 ng/ml) was 74.30 % GDNF. The “survived neurons as %” value (dopamine neurons; exp3, 1000 ng/ml) was 73.98 % GDNF, the “Fold change of survived neurons compared to neurons grown without growth factors” value (dopamine neurons; Table 4, AVG, 1 ng/ml) was 1.04 fold and the “Fold change of survived neurons compared to neurons grown without growth factors” value (dopamine neurons; Table 4, AVG, 10 ng/ml) was 1.31 fold. For the same molecule, the “Fold change of survived neurons compared to neurons grown without growth factors” value (dopamine neurons; Table 4, AVG, 100 ng/ml) was 1.26 fold, the “Fold change of survived neurons compared to neurons grown without growth factors” value (dopamine neurons; Table 4, AVG, 1000 ng/ml) was 1.14 fold and the “Fold change of survived neurons compared to neurons grown without growth factors” value (dopamine neurons; Table 4, exp1, 1 ng/ml) was 1.10 fold. The “Fold change of survived neurons compared to neurons grown without growth factors” value (dopamine neurons; Table 4, exp1, 10 ng/ml) was 1.43 fold, the “Fold change of survived neurons compared to neurons grown without growth factors” value (dopamine neurons; Table 4, exp1, 100 ng/ml) was 1.60 fold and the “Fold change of survived neurons compared to neurons grown without growth factors” value (dopamine neurons; Table 4, exp1, 1000 ng/ml) was 1.31 fold. For the same molecule, the “Fold change of survived neurons compared to neurons grown without growth factors” value (dopamine neurons; Table 4, exp2, 1 ng/ml) was 1.07 fold, the “Fold change of survived neurons compared to neurons grown without growth factors” value (dopamine neurons; Table 4, exp2, 10 ng/ml) was 1.28 fold and the “Fold change of survived neurons compared to neurons grown without growth factors” value (dopamine neurons; Table 4, exp2, 100 ng/ml) was 1.04 fold. The “Fold change of survived neurons compared to neurons grown without growth factors” value (dopamine neurons; Table 4, exp2, 1000 ng/ml) was 0.97 fold, the “Fold change of survived neurons compared to neurons grown without growth factors” value (dopamine neurons; Table 4, exp3, 1 ng/ml) was 0.95 fold and the “Fold change of survived neurons compared to neurons grown without growth factors” value (dopamine neurons; Table 4, exp3, 10 ng/ml) was 1.23 fold. For the same molecule, the “Fold change of survived neurons compared to neurons grown without growth factors” value (dopamine neurons; Table 4, exp3, 100 ng/ml) was 1.15 fold, the “Fold change of survived neurons compared to neurons grown without growth factors” value (dopamine neurons; Table 4, exp3, 1000 ng/ml) was 1.14 fold and the “protection of dopaminergic neurons in culture (result in words)” value (dopamine neurons) was “protects”. For the same molecule, the “protection of dopaminergic neurons in culture (result in words)” value (dopamine neurons; listed as C-terminal CDNF fragment) was “potently protected”, the “motor coordination (rotarod performance)” value ([1]; 4-week chronic intracerebroventricular infusion 1.5 μg/24 h, significant week 13 until week 19, p<0.01) was “improves motor coordination” and the “relative changes in body weight” value ([1]; 4-week chronic intracerebroventricular infusion 1.5 μg/24 h, weeks 18 and 19, p<0.05 vs PBS) was “Significant differences”. For the same molecule, the “motor behavior (rotarod, latency to fall)” value ([1]; single intracerebroventricular injection 3.75 μg at 13 weeks, SOD1-G93A females, vs PBS) was “improves the motor behavior”, the clinical score ([1]; single intracerebroventricular injection 3.75 μg at the age of 13 weeks, female animals, vs PBS) was “statistically significantly better clinical scores” and the blood-brain-barrier penetration [2] was “capable of penetrating”.
